Test results from IntAct's records for PubMed 18239685.

Molecular target: taxb1_human TAX1BP1 (UniProt Q86VP1)

effect of a mutation on the interaction: decreasing interaction
Substance: Polyubiquitin-C (Homo sapiens) (from UniProt P0CG48) I44A
